# According to patent publication US20140274782A1, “AFFINITY REAGENTS AND METHODS FOR DETECTION, PURIFICATION, AND PROTEOMIC ANALYSIS OF METHYLATED PROTEINS” (The Board of Trustees of the Leland Stanford Junior …, priority 2013, published 2014):
# T1: G9a and GLP (Homo sapiens, UniProt Q96KQ7+Q9H9B1)
# T1 sequence (Q96KQ7 2-1210 limits assumed): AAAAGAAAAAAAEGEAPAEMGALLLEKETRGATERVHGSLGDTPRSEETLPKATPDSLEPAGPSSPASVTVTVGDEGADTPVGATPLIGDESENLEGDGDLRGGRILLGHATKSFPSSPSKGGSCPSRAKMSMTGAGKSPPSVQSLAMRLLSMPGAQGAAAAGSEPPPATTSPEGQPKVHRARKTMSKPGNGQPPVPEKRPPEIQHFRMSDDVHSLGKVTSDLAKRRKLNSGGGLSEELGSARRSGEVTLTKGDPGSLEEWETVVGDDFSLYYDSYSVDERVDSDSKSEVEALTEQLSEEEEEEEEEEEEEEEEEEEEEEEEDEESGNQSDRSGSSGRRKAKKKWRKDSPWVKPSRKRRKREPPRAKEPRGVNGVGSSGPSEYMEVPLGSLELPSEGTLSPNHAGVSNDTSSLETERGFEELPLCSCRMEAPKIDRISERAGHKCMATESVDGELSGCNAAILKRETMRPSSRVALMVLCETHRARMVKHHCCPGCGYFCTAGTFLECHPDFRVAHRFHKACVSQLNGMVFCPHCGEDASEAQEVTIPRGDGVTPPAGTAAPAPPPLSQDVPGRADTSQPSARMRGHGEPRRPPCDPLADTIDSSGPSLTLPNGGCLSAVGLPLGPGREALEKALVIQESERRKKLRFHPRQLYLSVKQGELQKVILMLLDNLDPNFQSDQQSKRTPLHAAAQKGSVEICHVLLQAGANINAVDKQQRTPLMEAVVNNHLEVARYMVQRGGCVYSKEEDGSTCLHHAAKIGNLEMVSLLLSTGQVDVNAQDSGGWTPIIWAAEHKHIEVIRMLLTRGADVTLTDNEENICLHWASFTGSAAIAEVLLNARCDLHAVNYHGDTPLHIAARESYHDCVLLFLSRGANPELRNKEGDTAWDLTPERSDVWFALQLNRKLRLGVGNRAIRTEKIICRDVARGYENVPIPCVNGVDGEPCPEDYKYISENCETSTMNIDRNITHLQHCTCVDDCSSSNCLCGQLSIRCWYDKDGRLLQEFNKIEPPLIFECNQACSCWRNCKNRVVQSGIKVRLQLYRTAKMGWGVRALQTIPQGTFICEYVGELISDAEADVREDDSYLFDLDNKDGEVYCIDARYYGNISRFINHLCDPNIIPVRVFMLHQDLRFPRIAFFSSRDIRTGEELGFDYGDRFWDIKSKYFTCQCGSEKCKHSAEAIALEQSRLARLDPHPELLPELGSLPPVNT
# T1 sequence (Q9H9B1 2-1298 limits assumed): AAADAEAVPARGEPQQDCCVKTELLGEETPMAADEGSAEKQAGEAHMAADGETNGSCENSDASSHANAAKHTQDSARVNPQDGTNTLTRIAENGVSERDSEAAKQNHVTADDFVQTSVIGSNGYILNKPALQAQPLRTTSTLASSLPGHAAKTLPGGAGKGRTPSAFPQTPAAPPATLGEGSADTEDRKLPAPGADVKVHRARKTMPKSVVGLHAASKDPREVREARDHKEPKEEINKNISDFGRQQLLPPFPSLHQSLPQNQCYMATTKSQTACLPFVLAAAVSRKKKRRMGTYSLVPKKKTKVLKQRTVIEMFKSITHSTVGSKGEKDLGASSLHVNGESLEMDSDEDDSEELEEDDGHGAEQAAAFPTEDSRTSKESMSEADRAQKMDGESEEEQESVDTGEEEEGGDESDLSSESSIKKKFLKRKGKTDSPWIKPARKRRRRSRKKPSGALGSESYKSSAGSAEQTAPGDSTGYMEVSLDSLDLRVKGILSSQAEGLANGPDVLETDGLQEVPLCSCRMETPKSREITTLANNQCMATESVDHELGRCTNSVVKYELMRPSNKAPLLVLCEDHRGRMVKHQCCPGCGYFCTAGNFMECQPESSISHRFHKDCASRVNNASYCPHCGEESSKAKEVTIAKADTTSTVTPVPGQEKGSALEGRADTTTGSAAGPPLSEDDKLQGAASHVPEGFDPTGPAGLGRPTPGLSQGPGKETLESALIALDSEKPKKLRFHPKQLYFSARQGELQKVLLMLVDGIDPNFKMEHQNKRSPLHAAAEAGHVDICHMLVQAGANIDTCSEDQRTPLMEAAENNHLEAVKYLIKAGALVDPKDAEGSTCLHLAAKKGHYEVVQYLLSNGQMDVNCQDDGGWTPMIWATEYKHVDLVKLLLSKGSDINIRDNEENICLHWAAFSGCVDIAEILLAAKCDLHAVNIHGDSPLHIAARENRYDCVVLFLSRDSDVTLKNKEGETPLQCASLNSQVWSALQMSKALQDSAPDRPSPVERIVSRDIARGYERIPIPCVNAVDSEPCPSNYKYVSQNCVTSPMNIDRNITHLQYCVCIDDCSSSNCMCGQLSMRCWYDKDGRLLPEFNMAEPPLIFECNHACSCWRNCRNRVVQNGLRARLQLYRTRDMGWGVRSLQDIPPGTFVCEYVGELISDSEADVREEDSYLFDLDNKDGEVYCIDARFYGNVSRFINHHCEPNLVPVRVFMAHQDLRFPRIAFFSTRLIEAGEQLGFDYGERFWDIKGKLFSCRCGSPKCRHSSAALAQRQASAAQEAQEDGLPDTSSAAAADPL
# B1: DSTN (protein, UniProt P60981 2-165, looked up)
# Destrin: ASGVQVADEVCRIFYDMKVRKCSTPEEIKKRKKAVIFCLSADKKCIIVEEGKEILVGDVGVTITDPFKHFVGMLPEKDCRYALYDASFETKESRKEELMFFLWAPELAPLKSKMIYASSKDAIKKKFQGIKHECQANGPEDLNRACIAEKLGGSLIVAFEGCPV
# B2: EWSR1 (protein, UniProt Q01844 1-656, looked up)
# RNA-binding protein EWS: MASTDYSTYSQAAAQQGYSAYTAQPTQGYAQTTQAYGQQSYGTYGQPTDVSYTQAQTTATYGQTAYATSYGQPPTGYTTPTAPQAYSQPVQGYGTGAYDTTTATVTTTQASYAAQSAYGTQPAYPAYGQQPAATAPTRPQDGNKPTETSQPQSSTGGYNQPSLGYGQSNYSYPQVPGSYPMQPVTAPPSYPPTSYSSTQPTSYDQSSYSQQNTYGQPSSYGQQSSYGQQSSYGQQPPTSYPPQTGSYSQAPSQYSQQSSSYGQQSSFRQDHPSSMGVYGQESGGFSGPGENRSMSGPDNRGRGRGGFDRGGMSRGGRGGGRGGMGSAGERGGFNKPGGPMDEGPDLDLGPPVDPDEDSDNSAIYVQGLNDSVTLDDLADFFKQCGVVKMNKRTGQPMIHIYLDKETGKPKGDATVSYEDPPTAKAAVEWFDGKDFQGSKLKVSLARKKPPMNSMRGGLPPREGRGMPPPLRGGPGGPGGPGGPMGRMGGRGGDRGGFPPRGPRGSRGNPSGGGNVQHRAGDWQCPNPGCGNQNFAWRTECNQCKAPKPEGFLPPPFPPPGGDRGRGGPGGMRGGRGGLMDRGGPGGMFRGGRGGDRGGFRGGRGMDRGGFGGGRRGGPGGPPGPLMEQMGGRRGGRGGPGKMDKGEHRQERRDRPY
# B3: SF3B1 (protein, UniProt O75533 1-1304, looked up)
# Splicing factor 3B subunit 1: MAKIAKTHEDIEAQIREIQGKKAALDEAQGVGLDSTGYYDQEIYGGSDSRFAGYVTSIAATELEDDDDDYSSSTSLLGQKKPGYHAPVALLNDIPQSTEQYDPFAEHRPPKIADREDEYKKHRRTMIISPERLDPFADGGKTPDPKMNARTYMDVMREQHLTKEEREIRQQLAEKAKAGELKVVNGAAASQPPSKRKRRWDQTADQTPGATPKKLSSWDQAETPGHTPSLRWDETPGRAKGSETPGATPGSKIWDPTPSHTPAGAATPGRGDTPGHATPGHGGATSSARKNRWDETPKTERDTPGHGSGWAETPRTDRGGDSIGETPTPGASKRKSRWDETPASQMGGSTPVLTPGKTPIGTPAMNMATPTPGHIMSMTPEQLQAWRWEREIDERNRPLSDEELDAMFPEGYKVLPPPAGYVPIRTPARKLTATPTPLGGMTGFHMQTEDRTMKSVNDQPSGNLPFLKPDDIQYFDKLLVDVDESTLSPEEQKERKIMKLLLKIKNGTPPMRKAALRQITDKAREFGAGPLFNQILPLLMSPTLEDQERHLLVKVIDRILYKLDDLVRPYVHKILVVIEPLLIDEDYYARVEGREIISNLAKAAGLATMISTMRPDIDNMDEYVRNTTARAFAVVASALGIPSLLPFLKAVCKSKKSWQARHTGIKIVQQIAILMGCAILPHLRSLVEIIEHGLVDEQQKVRTISALAIAALAEAATPYGIESFDSVLKPLWKGIRQHRGKGLAAFLKAIGYLIPLMDAEYANYYTREVMLILIREFQSPDEEMKKIVLKVVKQCCGTDGVEANYIKTEILPPFFKHFWQHRMALDRRNYRQLVDTTVELANKVGAAEIISRIVDDLKDEAEQYRKMVMETIEKIMGNLGAADIDHKLEEQLIDGILYAFQEQTTEDSVMLNGFGTVVNALGKRVKPYLPQICGTVLWRLNNKSAKVRQQAADLISRTAVVMKTCQEEKLMGHLGVVLYEYLGEEYPEVLGSILGALKAIVNVIGMHKMTPPIKDLLPRLTPILKNRHEKVQENCIDLVGRIADRGAEYVSAREWMRICFELLELLKAHKKAIRRATVNTFGYIAKAIGPHDVLATLLNNLKVQERQNRVCTTVAIAIVAETCSPFTVLPALMNEYRVPELNVQNGVLKSLSFLFEYIGEMGKDYIYAVTPLLEDALMDRDLVHRQTASAVVQHMSLGVYGFGCEDSLNHLLNYVWPNVFETSPHVIQAVMGALEGLRVAIGPCRMLQYCLQGLFHPARKVRDVYWKIYNSIYIGSQDALIAHYPRIYNDDKNTYIRYELDYIL
# B4: SH3PXD2B (protein, UniProt A1X283 1-911, looked up)
# SH3 and PX domain-containing …: MPPRRSIVEVKVLDVQKRRVPNKHYVYIIRVTWSSGSTEAIYRRYSKFFDLQMQMLDKFPMEGGQKDPKQRIIPFLPGKILFRRSHIRDVAVKRLIPIDEYCKALIQLPPYISQCDEVLQFFETRPEDLNPPKEEHIGKKKSGGDQTSVDPMVLEQYVVVANYQKQESSEISLSVGQVVDIIEKNESGWWFVSTAEEQGWVPATCLEGQDGVQDEFSLQPEEEEKYTVIYPYTARDQDEMNLERGAVVEVIQKNLEGWWKIRYQGKEGWAPASYLKKNSGEPLPPKPGPGSPSHPGALDLDGVSRQQNAVGREKELLSSQRDGRFEGRPVPDGDAKQRSPKMRQRPPPRRDMTIPRGLNLPKPPIPPQVEEEYYTIAEFQTTIPDGISFQAGLKVEVIEKNLSGWWYIQIEDKEGWAPATFIDKYKKTSNASRPNFLAPLPHEVTQLRLGEAAALENNTGSEATGPSRPLPDAPHGVMDSGLPWSKDWKGSKDVLRKASSDMSASAGYEEISDPDMEEKPSLPPRKESIIKSEGELLERERERQRTEQLRGPTPKPPGVILPMMPAKHIPPARDSRRPEPKPDKSRLFQLKNDMGLECGHKVLAKEVKKPNLRPISKSKTDLPEEKPDATPQNPFLKSRPQVRPKPAPSPKTEPPQGEDQVDICNLRSKLRPAKSQDKSLLDGEGPQAVGGQDVAFSRSFLPGEGPGRAQDRTGKQDGLSPKEISCRAPPRPAKTTDPVSKSVPVPLQEAPQQRPVVPPRRPPPPKKTSSSSRPLPEVRGPQCEGHESRAAPTPGRALLVPPKAKPFLSNSLGGQDDTRGKGSLGPWGTGKIGENREKAAAASVPNADGLKDSLYVAVADFEGDKDTSSFQEGTVFEVREKNSSGWWFCQVLSGAPSWEGWIPSNYLRKKP
# Tested on: 3×MBT domain of L3MBTL1
# Experiment: Triple SILAC pull-down, 3xMBT/3xMBTD355N ratio (cytoplasmic, nuclear and chromatin fractions of 293T cells);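 also: proteins quantified with MaxQuant, requiring at least two unique peptides and quantification in both label directions, normalized to the mean of proteins from a digested loading control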
# Assay type: binding, human
# Conditions: SILAC ratio, pull-down 3xMBT vs 3xMBTD355N; experiment with UNC0638 in heavy SILAC media
row,Molecule,3xMBT/D355N UNC Heavy [log base 2]
1,B1,3.00
2,B2,2.09
3,B3,3.17
4,B4,3.07

# Same assay, conditions: SILAC ratio, pull-down 3xMBT vs 3xMBTD355N; experiment with UNC0638 in light SILAC media
row,Molecule,3xMBT/D355N UNC Light [log base 2]
1,B1,2.54
2,B2,2.82
3,B3,3.31
4,B4,3.71

# Target: T1, G9a and GLP
# Experiment: Triple SILAC pull-down after UNC0638 treatment of 293T cells, DMSO/UNC0638 ratio of protein captured by 3×MBT;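 also: mass spectrometry (Q-Exactive) SILAC quantitation, DMSO/UNC0638 ratio computed after subtracting 3×MBTD355N mutant pull-down background, only proteins with at least twofold 3×MBT over mutant signal considered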
# Assay type: cell-based
# Design: endogenous in cells; host or cells: HEK 293T
# Conditions: SILAC ratio DMSO/UNC0638 of protein pulled down with 3xMBT; UNC0638 in heavy SILAC media
row,Relative to UNC0638 UNC Heavy [log base 2],Molecule
1,0.24,B1
2,−0.11,B2
3,0.11,B3
4,−0.09,B4

# Same assay, conditions: SILAC ratio DMSO/UNC0638 of protein pulled down with 3xMBT; UNC0638 in light SILAC media
row,Relative to UNC0638 UNC Light [log base 2],Molecule
1,0.04,B1
2,0.38,B2
3,0.18,B3
4,0.37,B4

# Same assay, conditions: average of UNC Light and UNC Heavy experiments
row,Relative to UNC0638 Average [log base 2],Molecule
1,0.14,B1
2,0.14,B2
3,0.14,B3
4,0.14,B4
